# Assay results from patent publication US6855515.
# Target: caspase-9 (UniProt P55211)
# Assay: Ki printed in running text; no assay described
substance,measurement,value
"Ac-DEVD-CHO, N-(N-Ac-Asp-Glu-Val)-3-amino-4-oxobutanoic acid (peptide)",Ki,60 nM
